According to paper PMC8748874, “Structures of the human peroxisomal fatty acid transporter ABCD1 in a lipid environment” (Communications Biology, 2022):

Tested on: T1, Nc1ncnc2c1ncn2[C@@H]1O[C@H](COP(=O)(O)OP(=O)(O)OP(=O)(O)O)[C@@H](O)[C@H]1O
T1 construct: full length, codon-optimized synthetic gene; C-terminal eYFP-Rho1D4 tag cut off with 3C protease; HEK293 Flp-In TREX; homodimer; in DDM/CHS, liposomes or MSP1D1 nanodiscs
Assay: molybdate-based colorimetric ATPase assay
Format: biochemical, Homo sapiens
Conditions: BPL/Chol liposomes and nanodiscs, 10 mM MgCl2, pH 7.5, 37 °C, ATP 0.0625 to 8 mM

For ABCD1 (ALDP) (Homo sapiens), the Km was “about 0.3 mM”.
